From PMC9499646, “Histidine-Rich Glycoprotein Suppresses the S100A8/A9-Mediated Organotropic Metastasis of Melanoma Cells” (International Journal of Molecular Sciences, 2022) come the findings set out here.

The target in this test is T1, histidine-rich glycoprotein (HRG), human plasma (human, UniProt P04196 19-525, glycosylated (a total of about 20-KDa glycosyl chains)).
T1 construct: histidine-rich glycoprotein, human plasma protein; 525 amino acids before processing and secretion; In the pull-down three bands (BP1, BP2, BP3) were all identified as HRG; BP2 and BP3 were estimated to be proteolytic products of BP1; also called plasma HRG; BP1; source: endogenous, healthy human plasma (pull-down)
T1 sequence (looked up): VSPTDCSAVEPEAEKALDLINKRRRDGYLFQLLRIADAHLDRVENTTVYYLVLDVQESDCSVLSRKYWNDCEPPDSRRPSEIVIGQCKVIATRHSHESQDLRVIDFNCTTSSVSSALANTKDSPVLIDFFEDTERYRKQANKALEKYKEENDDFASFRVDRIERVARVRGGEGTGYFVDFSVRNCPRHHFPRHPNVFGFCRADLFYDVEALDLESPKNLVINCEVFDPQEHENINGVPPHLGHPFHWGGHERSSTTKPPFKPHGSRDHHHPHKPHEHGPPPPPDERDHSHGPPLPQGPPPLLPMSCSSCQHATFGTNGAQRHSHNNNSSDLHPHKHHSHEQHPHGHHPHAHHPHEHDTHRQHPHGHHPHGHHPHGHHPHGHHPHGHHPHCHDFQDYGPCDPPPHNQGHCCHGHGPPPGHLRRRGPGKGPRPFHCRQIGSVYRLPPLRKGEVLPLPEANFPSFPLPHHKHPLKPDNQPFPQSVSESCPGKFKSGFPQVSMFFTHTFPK
The test is described as follows: ELISA; 96-well plate coated with purified HRG (100 µg/mL); blocked with Blockmaster DB1130; biotinylated S100A8/A9 at different concentrations; HRP-streptavidin, TMB; background of wells without HRG deducted. The following applies: both partners purified. (In general: In an ELISA, binding on a coated surface is turned into a signal by an enzyme label.)

B1: human recombinant S100A8/A9 heterodimer (complex)
chain 1: MLTELEKALNSIIDVYHKYSLIKGNFHAVYRDDLKKLLETECPQYIRKKGADVWFKELDINTDGAVNFQEFLILVIKMGVAAHKKSHEESHKE
chain 2: MTCKMSQLERNIETIINTFHQYSVKLGHPDTLNQGEFKELVRKDLQNFLKKENKNEKVIEHIMEDLDTNADKQLSFEEFIMLMARLTWASHEKMHEGDEGPGHHHKPGLGEGTP
modifications: biotinylated in the ELISA (chain and site not stated) | biotinylated in the ELISA (chain and site not stated)
notes: S100A8 (Calgranulin A), human; S100A9 (Calgranulin B), human; Biotinylated in the ELISA; no biotin is mentioned for the cell assays; also called recombinant human S100A8/A9 heterodimer complex; biotinylated human recombinant S100A8/A9 protein; source: recombinant, highly purified, prepared as described previously [43]
For the molecule B1, the binding result is listed as “binds”.
